# Measured values reported in patent US9284369B2, “Inhibition of angiogenesis” (Genentech, Inc., priority 2007, dated 2016).
# B1: G-CSF: recombinant granulocyte-CSF: mouse or human (R&D Systems) or human Neupogen (Amgen) (protein, chains of the INN, looked up)
# chain: MTPLGPASSLPQSFLLKCLEQVRKIQGDGAALQEKLCATYKLCHPEELVLLGHSLGIPWAPLSSCPSQALQLAGCLSQLHSGLFLYQGLLQALEGISPELGPTLDTLQLDVADFATTIWQQMEELGMAPALQPTQGAMPAFASAFQRRAGGVLVASHLQSFLEVSYRVLRHLAQP
# Experiments:
# Bv8 expression [1] = assay: Regulation of Bv8 gene expression in cultured mouse BMMNCs (Taqman); type: cell-based; details: for stimulation of Bv8 expression in CD11b+Gr1+ cells: 20 pg/ml G-CSF, 4 hrs
# Description: RNA from tissues or cells was prepared using the RNeasy Mini Kit® (Qiagen). 50 ng total RNA per reaction was used for the real time PCR (Taqman™) analysis. For mouse/human Bv8 and EG-VEGF/Bv8 receptor 1 (PKR-1/EG-VEGFR1, R-1), testis RNA (BD Biosciences) served as control. For mouse/human EG-VEGF/Bv8 receptor 2 (PKR-2/EG-VEGFR2, R2), hypothalamus or whole brain (BD Biosciences) served as the control tissues. Reactions were run on 9600 Emulation mode of 7500 Real […] time PCR system (Applied Biosystems) and the absolute quantification with standard curve was used with Sequence Detection System (SDS) software. The expression level of each gene was further quantified against the house-keeping gene RPL19 in the same sample. To confirm the expression of VEGFR-1, VEGFR-2, EG-VEGF/Bv8 R1 and EG-VEGF/Bv8 R2 in the tumor-associated endothelial cells, standard RT-PCR was conducted using the Titan One Tube™ RT-PCR system (Roche) and the end products were checked on 2% agarose gel (Invitrogen) for the correct size. The sequence of Taqman™ primers are as follows: […]
# Recombinant mouse MCP-1, MIP-1α, MIP-1β, MIP-2, bFGF, VEGF, GM-CSF, G-CSF, SDF-1 and TNFα were purchased from R&D Systems (Minneapolis, Minn.). Recombinant mouse KC, IFNγ, Bv8 (Prokineticin-2), IL-4, IL-10, IL-13, TGF-β were from PeproTech Inc. (Rocky Hill, N.J.). […] Conditioned media at 1:3 dilution were used (final FBS concentration was 0.17%). Data were normalized against total cell number. BM cells were flushed from mouse leg bones with DMEM containing 10% FBS. Cells were centrifuged at 1200 rpm for 5 min and resuspended in HBSS media containing 0.2% BSA (low endotoxin, Serologicals Corp. Norcross, Ga.). Two million cells were incubated in 24-well plates with various cytokines for 4 hr at 37° C. in a 5% CO2 incubator. Cells were then transferred in eppendorf tubes, centrifuged and lysed by RNA lysis buffer (Qiagen, Valencia, Calif.). Bv8 expression was assessed by Taqman™ with RPL19 (Ribosomal Protein L19) as the internal control gene. In some cases, CD11b+Gr1+ or CD11b−Gr1− BM cells were obtained using FACS sorting.
# CD11b+Gr1+ cells = assay: G-CSF-induced mobilization of CD11b+Gr1+ cells; type: in vivo, mouse; details: sub-maximal dose 2 μg, within six hours
# Description: To determine the role of Bv8 in G-CSF-induced mobilization of CD11b+Gr1+ cells, Balb/c nude mice received two doses of anti-Bv8 antibodies (5+5 mg/kg), 12 hours apart, followed by mouse G-CSF (R&D Systems; 2 μg/mouse) fours hours after the second dose of Mab. As a positive control, we used a rat anti-mouse G-CSF Mab (Mab414, R&D Systems; 10 μg/mouse) given at the same interval as anti-Bv8, followed by mouse G-CSF. After six hours, mice were bled and the frequency of CD11b+Gr1+ cells was determined as described. To determine the role of G-CSF in regulating Bv8 expression in the absence of tumor, Balb/c nude mice were given daily i.p. injections of control rat IgG (Genentech) or rat anti-G-CSF Mab (Mab414, R&D Systems, 10 μg/mouse) for eight consecutive days. Animals were euthanized and total proteins were extracted from BMMNCs. Bv8 levels were measured by ELISA, as described. To assess the significance of G-CSF in regulating Bv8 expression in tumors, Balb/c nude mice were pretreated with 10 μg of rat anti-G-CSF Mab or rat IgG as above described, followed after 12 hours by implantation with HM7 cells (5×10^6 per mouse). Controls were implanted with empty Matrigel™. Animals then received daily administration of antibodies for two days. Forty-eight hours after Matrigel™ or tumor implantation, mice were euthanized and Bv8 levels in BMMNCs were measured as described above.
# human neutrophils = assay: Chemotaxis of peripheral blood neutrophils; type: cell-based
# Description: 10^6 cells were washed with HBSS containing 0.2% BSA before putting into transwell insert with 5 μm pore size (Corning Incorporated, Lowell, Mass.). In the lower chamber, media alone or media with various cytokines at various concentrations (maximum at 200 ng/ml) was added. After 3 hr at 37° C., cells in the lower chamber were transferred, mixed with 9 ml ZPAK solution and counted on Z2 Coulter Particle Count and Size Analyzer (Beckman Coulter, Fullerton, Calif.).
# Bv8 expression [2] = details: previously reported; cited from earlier work
molecule,measurement,setting,value
B1,stimulation of Bv8 expression in CD11b+Gr1+ cells,Bv8 expression [1]; hypoxic conditions,~10 fold
same,stimulation of Bv8 expression in CD11b+Gr1+ cells,Bv8 expression [1]; normoxic conditions,~5 fold
same,Bv8 up-regulation in purified CD11b+Gr1+ cells,"Bv8 expression [1]; 10 ng/ml, 4 hr",over 100 fold
same,up-regulation of Bv8 in unsorted BMMNCs,"Bv8 expression [1]; 10 ng/ml, 4 hr",> 27 fold
same,mobilization of CD11b+Gr1+ to the peripheral blood,CD11b+Gr1+ cells,significant mobilization
same,concentration required to stimulate neutrophil migration,human neutrophils,20 nM
same,up-regulation of Bv8 expression in mouse bone marrow cells and peripheral neutrophils,Bv8 expression [2],> 30 fold
